Tests used:
[1] = molecular target: cell surface IgG (sIgG) of the sIgG+ B-cell line SU-DHL-4 (human (endogenous in SU-DHL-4))
[2] = molecular target: cell surface IgG (sIgG) of the sIgG+ B-cell line SU-DHL-4 (human (endogenous in SU-DHL-4)); remark: listed apart in the source

**Q.** With “IgAimG (SpA toxin 2): diphtheria toxin without its receptor binding domain, GGGS linker, SpA ZZ domain” as the substance, how does the viability of SU-DHL-4 after 3 days with 10 to 100 μg/ml IgAimG in the presence of human serum (luminescent cell viability assay) (% of cells killed) [1] read?
**A.** The viability of SU-DHL-4 after 3 days with 10 to 100 μg/ml IgAimG in the presence of human serum (luminescent cell viability assay) (% of cells killed) was over 99.

**Q.** What about the viability of the sIgG+ B-cell line SU-DHL-4 after 3 days with the toxin (luminescent cell viability assay); toxic from 0.0001 μg/ml (% of cells killed) [2] of the same substance?
**A.** Its viability of the sIgG+ B-cell line SU-DHL-4 after 3 days with the toxin (luminescent cell viability assay); toxic from 0.0001 μg/ml (% of cells killed) is 99.

Reference: paper PMC12429969
